T1: FcγRIIb (human, UniProt P31994 43-217)
T1 construct: extracellular domain; also called FcgRIIb; 2b
T1 sequence (looked up): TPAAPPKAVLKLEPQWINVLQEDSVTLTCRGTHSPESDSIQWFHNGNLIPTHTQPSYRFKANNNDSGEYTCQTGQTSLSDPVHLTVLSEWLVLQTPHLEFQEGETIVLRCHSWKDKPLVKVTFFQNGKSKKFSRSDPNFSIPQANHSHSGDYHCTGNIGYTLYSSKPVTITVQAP

T2: FcγRIIa H (FcgRIIa type H, His at position 131), extracellular domain with C-terminal His tag (human, UniProt P12318 34-217)
T2 construct: extracellular domain; also called 2aH; FcgRIIa H; not shown: His tag at the C terminus
T2 sequence (looked up): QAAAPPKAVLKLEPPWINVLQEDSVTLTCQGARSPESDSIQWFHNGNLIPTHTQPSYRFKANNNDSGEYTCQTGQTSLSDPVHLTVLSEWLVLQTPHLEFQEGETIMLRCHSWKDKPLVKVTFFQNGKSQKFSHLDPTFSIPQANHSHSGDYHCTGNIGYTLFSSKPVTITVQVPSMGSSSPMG

T3: FcγRIIb, extracellular domain with C-terminal His tag (human, UniProt P31994 43-217)
T3 construct: extracellular domain; also called 2b; FcgRIIb; not shown: His tag at the C terminus
T3 sequence (looked up): T1 sequence (looked up)

B1: GpH7-A5/GpH7-B3 variant V266_15Y/GpL16-k0 (antibody, human IgG1, kappa)
heavy 1: not shown
heavy 2: not shown
light: DIVMTQSPLSLPVTPGEPASISCQASESLVHSNRNTYLHWYLQKPGQSPQLLIYKVSNRFSGVPDRFSGSGSGTDFTLKISRVEAEDVGVYYCSQNTHVPPTFGQGTKVEIERTVAAPSVFIFPPSDEQLKSGTASVVCLLNNFYPREAKVQWKVDNALQSGNSQESVTEQDSKDSTYSLSSTLTLSKADYEKHKVYACEVTHQGLSSPVTKSFNRGEC
notes: mutation in the GpH7-B3 chain only; also called He Ab
B2: GpH7-A5/GpH7-B3 variant S267_02A/GpL16-k0 (antibody, human IgG1, kappa)
heavy 1: not shown
heavy 2: not shown
light: B1 light
notes: He Ab; alteration in one H chain only; also called He Ab
B3: GpH7-A5/GpH7-B3 variant V266_06M/GpL16-k0 (antibody, human IgG1, kappa)
heavy 1: not shown
heavy 2: not shown
light: B1 light
notes: as for B1
B4: GpH7-A5/GpH7-B3 variant V266_16H/GpL16-k0 (antibody, human IgG1, kappa)
heavy 1: not shown
heavy 2: not shown
light: B1 light
notes: as for B1
B5: GpH7-A5/GpH7-B3 variant P271_10E/GpL16-k0 (antibody, human IgG1, kappa)
heavy 1: not shown
heavy 2: not shown
light: B1 light
notes: as for B2
B6: GpH7-A5/GpH7-B3 variant V266_14T/GpL16-k0 (antibody, human IgG1, kappa)
heavy 1: not shown
heavy 2: not shown
light: B1 light
notes: as for B1
B7: GpH7-A5/GpH7-B3 variant V266_08L/GpL16-k0 (antibody, human IgG1, kappa)
heavy 1: not shown
heavy 2: not shown
light: B1 light
notes: as for B1
B8: GpH7-A5/GpH7-B3 variant V266_07I/GpL16-k0 (antibody, human IgG1, kappa)
heavy 1: not shown
heavy 2: not shown
light: B1 light
notes: as for B1
B9: GpH7-A5/GpH7-B3 variant V266_13S/GpL16-k0 (antibody, human IgG1, kappa)
heavy 1: not shown
heavy 2: not shown
light: B1 light
notes: as for B1
B10: GpH7-A5/GpH7-B3 variant S267_08L/GpL16-k0 (antibody, human IgG1, kappa)
heavy 1: not shown
heavy 2: not shown
light: B1 light
notes: as for B2
B11: GpH7-A5/GpH7-B3 variant V266_18N/GpL16-k0 (antibody, human IgG1, kappa)
heavy 1: not shown
heavy 2: not shown
light: B1 light
notes: as for B1
B12: GpH7-A5/GpH7-B3 variant P271_14T/GpL16-k0 (antibody, human IgG1, kappa)
heavy 1: not shown
heavy 2: not shown
light: B1 light
notes: as for B2
B13: GpH7-A5/GpH7-B3 variant H268_13S/GpL16-k0 (antibody, human IgG1, kappa)
heavy 1: not shown
heavy 2: not shown
light: B1 light
notes: as for B2
B14: GpH7-A5/GpH7-B3 variant K326_03V/GpL16-k0 (antibody, human IgG1, kappa)
heavy 1: not shown
heavy 2: not shown
light: B1 light
notes: as for B2
B15: GpH7-A5/GpH7-B3 variant V266_09D/GpL16-k0 (antibody, human IgG1, kappa)
heavy 1: not shown
heavy 2: not shown
light: B1 light
notes: as for B1
B16: GpH7-A5/GpH7-B3 variant S267_09D/GpL16-k0 (antibody, human IgG1, kappa)
heavy 1: not shown
heavy 2: not shown
light: B1 light
notes: as for B2
B17: GpH7-A5/GpH7-B3 variant V266_11K/GpL16-k0 (antibody, human IgG1, kappa)
heavy 1: not shown
heavy 2: not shown
light: B1 light
notes: as for B1
B18: GpH7-A5/GpH7-B3 variant H268_18N/GpL16-k0 (antibody, human IgG1, kappa)
heavy 1: not shown
heavy 2: not shown
light: B1 light
notes: as for B2
B19: GpH7-A5/GpH7-B3 variant H268_01G/GpL16-k0 (antibody, human IgG1, kappa)
heavy 1: not shown
heavy 2: not shown
light: B1 light
notes: as for B2

Legend:
FcγRIIb = target: T1, FcγRIIb; experiment: SPR (Biacore), relative binding
FcγRIIIa [1] = target: T4, FcγRIIIa (human, UniProt P08637 17-208); experiment: SPR (Biacore), relative binding
T4 construct: extracellular domain; also called FcgRIIIa; 3a

FcγRIIIa [2] = target: T4, FcγRIIIa; experiment: SPR; He/Con_3a divided by He/Con_2b (FcγRIIIa against FcγRIIb)
[3] = target: T2, FcγRIIa H (FcgRIIa type H, His at …); experiment: SPR (Biacore), relative binding, GpH7-A5/GpH7-B3/GpL16-k0 = 100
[4] = target: T3, FcγRIIb, extracellular domain with …; experiment: as above
[5] = target: T2, FcγRIIa H (FcgRIIa type H, His at …); experiment: SPR; He/Con_2aH divided by He/Con_2b (FcγRIIa H binding over FcγRIIb binding)

T4 sequence (P08637 17-208): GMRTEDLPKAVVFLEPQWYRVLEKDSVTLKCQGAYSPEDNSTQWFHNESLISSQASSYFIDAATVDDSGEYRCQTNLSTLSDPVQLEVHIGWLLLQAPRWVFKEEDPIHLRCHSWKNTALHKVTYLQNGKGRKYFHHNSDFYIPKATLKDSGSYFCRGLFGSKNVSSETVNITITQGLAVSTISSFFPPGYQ

Row | Binder | He/Con_2b (FcγRIIb) | He/Con_3a (FcγRIIIa [1]) | He_3a/2b (IIIa/IIb) (FcγRIIIa [2]) | He/Con_2aH [3] | He/Con_2b [4] | He_2aH/2b (IIaH/IIb) [5]
1 | B1 | 49.4 % of GpH7-A5/GpH7-B3/GpL16-k0 | 14.5 % of GpH7-A5/GpH7-B3/GpL16-k0 | 0.29 ratio |  |  | 
2 | B2 |  |  |  | 120 % of control | 243 % of control | 0.49 ratio
3 | B3 | 251 % of GpH7-A5/GpH7-B3/GpL16-k0 | 85.8 % of GpH7-A5/GpH7-B3/GpL16-k0 | 0.34 ratio |  |  | 
4 | B4 | 57.2 % of GpH7-A5/GpH7-B3/GpL16-k0 | 21.3 % of GpH7-A5/GpH7-B3/GpL16-k0 | 0.37 ratio |  |  | 
5 | B5 |  |  |  | 63.1 % of control | 109 % of control | 0.58 ratio
6 | B6 | 82.3 % of GpH7-A5/GpH7-B3/GpL16-k0 | 39.4 % of GpH7-A5/GpH7-B3/GpL16-k0 | 0.48 ratio |  |  | 
7 | B7 | 236 % of GpH7-A5/GpH7-B3/GpL16-k0 | 118 % of GpH7-A5/GpH7-B3/GpL16-k0 | 0.5 ratio |  |  | 
8 | B8 | 152 % of GpH7-A5/GpH7-B3/GpL16-k0 | 114 % of GpH7-A5/GpH7-B3/GpL16-k0 | 0.75 ratio |  |  | 
9 | B9 | 54.4 % of GpH7-A5/GpH7-B3/GpL16-k0 | 28.1 % of GpH7-A5/GpH7-B3/GpL16-k0 | 0.52 ratio |  |  | 
10 | B10 |  |  |  | 29 % of control | 109 % of control | 0.27 ratio
11 | B11 | 69.7 % of GpH7-A5/GpH7-B3/GpL16-k0 | 30.4 % of GpH7-A5/GpH7-B3/GpL16-k0 | 0.44 ratio |  |  | 
12 | B12 |  |  |  | 60.9 % of control | 95.4 % of control | 0.64 ratio
13 | B13 |  |  |  | 112 % of control | 160 % of control | 0.7 ratio
14 | B14 |  |  |  | 97 % of control | 175 % of control | 0.55 ratio
15 | B15 | 10.1 % of GpH7-A5/GpH7-B3/GpL16-k0 | 2.7 % of GpH7-A5/GpH7-B3/GpL16-k0 | 0.27 ratio |  |  | 
16 | B16 |  |  |  | 105 % of control | 310 % of control | 0.34 ratio
17 | B17 | 1 % of GpH7-A5/GpH7-B3/GpL16-k0 | -0.7 % of GpH7-A5/GpH7-B3/GpL16-k0 | -0.7 ratio |  |  | 
18 | B18 |  |  |  | 112 % of control | 156 % of control | 0.72 ratio
19 | B19 |  |  |  | 99.2 % of control | 144 % of control | 0.69 ratio

— patent US20150344570A1 (published 2015)
